Laboratory results: US20250018014A1, “METHOD FOR TREATING AND/OR PREVENTING REGNASE-1-RELATED DISEASE” (OSAKA UNIVERSITY, priority 2018, published 2025)
Where two headings read alike, the source gives them in different places. Positions of bridges follow the written chain, without caps; N, C: chain ends. Non-standard residues stand in square brackets, D forms with d. *: point of attachment. NMeA = CN[C@@H](C)C(=O)O; Pyrrolidide = C1CCN(*)C1; dNMeA = CN[C@H](C)C(=O)O

What was measured:
Test in all cases: cell-based or functional assay
[1] = target: T1, C-terminal domain-deleted human Regnase-1 (amino acids 1 to 546) with N-terminal FLAG tag and C-terminal BirA … (human, UniProt Q5D1E8 1-546)
T1 sequence: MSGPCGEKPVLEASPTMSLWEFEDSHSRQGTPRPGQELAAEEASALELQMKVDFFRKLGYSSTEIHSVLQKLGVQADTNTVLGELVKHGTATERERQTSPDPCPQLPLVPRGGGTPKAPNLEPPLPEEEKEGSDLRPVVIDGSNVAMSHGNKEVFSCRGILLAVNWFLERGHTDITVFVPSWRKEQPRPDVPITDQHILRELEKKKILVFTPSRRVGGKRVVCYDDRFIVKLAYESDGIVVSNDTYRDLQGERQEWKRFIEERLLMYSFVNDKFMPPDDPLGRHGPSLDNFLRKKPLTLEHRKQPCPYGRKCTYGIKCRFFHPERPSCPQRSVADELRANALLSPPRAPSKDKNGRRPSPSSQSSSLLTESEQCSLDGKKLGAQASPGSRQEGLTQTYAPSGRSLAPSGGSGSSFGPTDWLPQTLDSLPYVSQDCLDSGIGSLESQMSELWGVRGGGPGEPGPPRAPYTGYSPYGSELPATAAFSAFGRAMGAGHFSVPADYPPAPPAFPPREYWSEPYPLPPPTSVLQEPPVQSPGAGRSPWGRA

[2] = target: T2, full-length human Regnase-1 with a FLAG tag on the N-terminal side and a biotin ligase BirA recognition … (human, UniProt Q5D1E8 1-599, biotinylated at the BirA recognition sequence when required)
T2 sequence: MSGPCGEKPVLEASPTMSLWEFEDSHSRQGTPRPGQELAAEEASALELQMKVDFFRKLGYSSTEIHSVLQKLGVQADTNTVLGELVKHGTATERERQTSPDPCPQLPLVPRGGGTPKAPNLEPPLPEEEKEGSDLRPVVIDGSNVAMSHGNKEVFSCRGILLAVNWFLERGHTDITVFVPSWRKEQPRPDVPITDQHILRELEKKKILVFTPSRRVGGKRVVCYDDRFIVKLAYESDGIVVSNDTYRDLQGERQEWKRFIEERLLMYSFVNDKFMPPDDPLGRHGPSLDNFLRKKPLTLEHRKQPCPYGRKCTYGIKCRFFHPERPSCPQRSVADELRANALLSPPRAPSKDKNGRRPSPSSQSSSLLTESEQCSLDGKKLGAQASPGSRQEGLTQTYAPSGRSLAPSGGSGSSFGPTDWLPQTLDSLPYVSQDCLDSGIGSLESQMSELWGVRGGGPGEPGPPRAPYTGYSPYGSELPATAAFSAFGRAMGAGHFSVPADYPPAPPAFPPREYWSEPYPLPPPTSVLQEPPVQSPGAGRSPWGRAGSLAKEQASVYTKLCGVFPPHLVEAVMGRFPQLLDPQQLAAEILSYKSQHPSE

[3] = target: T3, C-terminal human Regnase-1 (amino acids 301 to 599) with N-terminal FLAG tag and C-terminal BirA recognition … (human, UniProt Q5D1E8 301-599)
T3 sequence: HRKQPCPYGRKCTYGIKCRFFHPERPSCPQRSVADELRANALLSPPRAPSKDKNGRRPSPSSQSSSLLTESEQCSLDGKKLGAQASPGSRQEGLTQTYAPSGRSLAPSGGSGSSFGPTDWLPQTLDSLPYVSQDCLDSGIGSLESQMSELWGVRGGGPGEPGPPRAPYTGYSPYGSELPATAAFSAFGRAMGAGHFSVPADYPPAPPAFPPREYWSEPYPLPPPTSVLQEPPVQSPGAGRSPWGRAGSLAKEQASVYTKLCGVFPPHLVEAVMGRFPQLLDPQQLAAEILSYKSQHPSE

[4] = target: T1, C-terminal domain-deleted human …; remark: listed apart in the source
[5] = target: T2, full-length human Regnase-1 with a FLAG …; remark: listed apart in the source
[6] = target: T3, C-terminal human Regnase-1 (amino acids …); remark: listed apart in the source
[7] = target: T1, C-terminal domain-deleted human …; remark: listed apart in the source
[8] = target: T2, full-length human Regnase-1 with a FLAG …; remark: listed apart in the source

Row | Binder | 50% inhibition concentration, Regnase-1 phosphorylation by IKKβ (AlphaScreen) [1] | 50% inhibition concentration, Regnase-1 phosphorylation by TBK1 (AlphaScreen) [1] | 50% inhibition concentration, Regnase-1 phosphorylation by IKKβ (AlphaScreen) [2] | 50% inhibition concentration, Regnase-1 phosphorylation by TBK1 (AlphaScreen) [2] | 50% inhibition concentration, Regnase-1 phosphorylation by IKKβ (AlphaScreen) [3] | 50% inhibition concentration, Regnase-1 phosphorylation by IKKβ (AlphaScreen) [4] | 50% inhibition concentration, Regnase-1 phosphorylation by IKKβ (AlphaScreen) [5] | 50% inhibition concentration, Regnase-1 phosphorylation by TBK1 (AlphaScreen) [6] | 50% inhibition concentration, Regnase-1 phosphorylation by TBK1 (AlphaScreen) [7] | 50% inhibition concentration, Regnase-1 phosphorylation by TBK1 (AlphaScreen) [8]
1 | XGYANSWYNIWD (HELM PEPTIDE1{[meA].G.Y.A.N.S.W.Y.N.I.W.D.[C1CCN([*:1])C1]}$PEPTIDE1,PEPTIDE1,1:R1-12:R3$$$V2.0; SMILES CC[C@H](C)[C@@H]1NC(=O)[C@H](CC(N)=O)NC(=O)[C@H](Cc2ccc(O)cc2)NC(=O)[C@H](Cc2c[nH]c3ccccc23)NC(=O)[C@H](CO)NC(=O)[C@H](CC(N)=O)NC(=O)[C@H](C)NC(=O)[C@H](Cc2ccc(O)cc2)NC(=O)CNC(=O)[C@H](C)N(C)C(=O)C[C@@H](C(=O)N2CCCC2)NC(=O)[C@H](Cc2c[nH]c3ccccc23)NC1=O) [PP2] | 14 µM | 17.6 µM | 16.6 µM | 21.7 µM | 18.5 µM | 14 µM | 16.6 µM | 22.4 µM | 17.6 µM | 21.7 µM
2 | XHSNAWYNIWD (HELM PEPTIDE1{[meA].H.S.N.A.W.Y.N.I.W.D.[C1CCN([*:1])C1]}$PEPTIDE1,PEPTIDE1,1:R1-11:R3$$$V2.0; SMILES CC[C@H](C)[C@@H]1NC(=O)[C@H](CC(N)=O)NC(=O)[C@H](Cc2ccc(O)cc2)NC(=O)[C@H](Cc2c[nH]c3ccccc23)NC(=O)[C@H](C)NC(=O)[C@H](CC(N)=O)NC(=O)[C@H](CO)NC(=O)[C@H](Cc2c[nH]cn2)NC(=O)[C@H](C)N(C)C(=O)C[C@@H](C(=O)N2CCCC2)NC(=O)[C@H](Cc2c[nH]c3ccccc23)NC1=O) [PP5] | 20.4 µM | 19.1 µM | 23.6 µM | 24.2 µM | 31.3 µM | 20.4 µM | 23.6 µM | 40.4 µM | 19.1 µM | 24.2 µM
3 | [NMeA]YIWDFFGDLD-Pyrrolidide (lactam N-11) [PP4] | 8.3 µM | 44.9 µM | 19.5 µM | 61.9 µM | 12.8 µM | 8.3 µM | 19.5 µM | 35.9 µM | 44.9 µM | 61.9 µM
4 | XPNSSWFKIWD (HELM PEPTIDE1{[C[C@H](C(=O)[*:2])N(C)[*:1]].P.N.S.S.W.F.K.I.W.D.[C1CCN([*:1])C1]}$PEPTIDE1,PEPTIDE1,1:R1-11:R3$$$V2.0; SMILES CC[C@H](C)[C@@H]1NC(=O)[C@H](CCCCN)NC(=O)[C@H](Cc2ccccc2)NC(=O)[C@H](Cc2c[nH]c3ccccc23)NC(=O)[C@H](CO)NC(=O)[C@H](CO)NC(=O)[C@H](CC(N)=O)NC(=O)[C@@H]2CCCN2C(=O)[C@@H](C)N(C)C(=O)C[C@@H](C(=O)N2CCCC2)NC(=O)[C@H](Cc2c[nH]c3ccccc23)NC1=O) [PP6] | 20.3 µM | 14.5 µM | 17 µM | 13.1 µM | 17.5 µM | 20.3 µM | 17 µM | 16.8 µM | 14.5 µM | 13.1 µM
5 | [dNMeA]KHASAWYRIWD-Pyrrolidide (lactam N-12) [PP3] | 8.3 µM | 5.7 µM | 4.6 µM | 3.9 µM | 6.8 µM | 8.3 µM | 4.6 µM | 7.1 µM | 5.7 µM | 3.9 µM
6 | XTSWYKVNWGQD (HELM PEPTIDE1{[meA].T.S.W.Y.K.V.N.W.G.Q.D.[C1CCN([*:1])C1]}$PEPTIDE1,PEPTIDE1,1:R1-12:R3$$$V2.0; SMILES CC(C)[C@@H]1NC(=O)[C@H](CCCCN)NC(=O)[C@H](Cc2ccc(O)cc2)NC(=O)[C@H](Cc2c[nH]c3ccccc23)NC(=O)[C@H](CO)NC(=O)[C@H]([C@@H](C)O)NC(=O)[C@H](C)N(C)C(=O)C[C@@H](C(=O)N2CCCC2)NC(=O)[C@H](CCC(N)=O)NC(=O)CNC(=O)[C@H](Cc2c[nH]c3ccccc23)NC(=O)[C@H](CC(N)=O)NC1=O) [PP1] | > 62.1 µM | > 62.1 µM | 28.1 µM | 54.5 µM | > 62.1 µM | > 62.1 µM | 28.1 µM | > 62.1 µM | > 62.1 µM | 54.5 µM
